The target in data set [1] is T1, Immunoglobulin E (IgE) (Macaca fascicularis) (UniProt A0A7N9DC98).
T1 sequence: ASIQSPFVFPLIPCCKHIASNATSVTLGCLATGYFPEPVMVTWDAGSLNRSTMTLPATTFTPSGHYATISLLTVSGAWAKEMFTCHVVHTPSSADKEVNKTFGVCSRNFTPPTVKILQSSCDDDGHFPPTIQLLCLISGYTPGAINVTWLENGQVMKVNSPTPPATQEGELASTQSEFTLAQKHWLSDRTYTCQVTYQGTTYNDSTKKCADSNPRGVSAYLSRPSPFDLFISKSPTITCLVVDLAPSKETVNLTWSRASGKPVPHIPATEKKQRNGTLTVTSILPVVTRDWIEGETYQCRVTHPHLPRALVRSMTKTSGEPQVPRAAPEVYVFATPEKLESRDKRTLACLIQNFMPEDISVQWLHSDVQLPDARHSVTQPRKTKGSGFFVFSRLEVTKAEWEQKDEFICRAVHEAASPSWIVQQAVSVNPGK
The data set is described as follows: inhibition.

The subject of data set [2] is Immunoglobulin E (IgE) (Homo sapiens), P01854-1. Description: filter.
For data set [3] the test system is unchanged. The data set is described as follows: inhibition. The settings on record: 2'-F C,U.
Data set [4] shares this test system. Description: FP. The note with it: 2'-F C and U; nitrocellulose dot blot filter, not fluorescence; biphasic, KD2 12.5 nM; 1xSHMCK + 0.1 mg/mL tRNA, RT.
Data set [5] addresses T2, Immunoglobulin E (IgE), cynomolgus (Macaca fascicularis) (UniProt A0A7N9DC98).
T2 sequence: T1 sequence
The data set is described as follows: inhibition. The settings on record: 2'-F C,U; no inhibition of monkey IgE-FceR1 up to 1 uM.

Data set [6] deals with Immunoglobulin E (IgE) (Homo sapiens), P01854-1. Description: FP_none. The note with it: 2'-OMe G2 and all C,U, rest 2'-deoxy, 3' idT [2'-OMe at 2,3,4,5,11,12,13,15,22,23, 3'-idT at 24].
[7] abbreviates: 3' idT, no inhibition of monkey IgE:FceR1a-Fc up to 250 nM.

Immunoglobulin E (IgE) (Homo sapiens), P01854-1, sequence (P01854 other isoform, or with tags, fused parts or gaps): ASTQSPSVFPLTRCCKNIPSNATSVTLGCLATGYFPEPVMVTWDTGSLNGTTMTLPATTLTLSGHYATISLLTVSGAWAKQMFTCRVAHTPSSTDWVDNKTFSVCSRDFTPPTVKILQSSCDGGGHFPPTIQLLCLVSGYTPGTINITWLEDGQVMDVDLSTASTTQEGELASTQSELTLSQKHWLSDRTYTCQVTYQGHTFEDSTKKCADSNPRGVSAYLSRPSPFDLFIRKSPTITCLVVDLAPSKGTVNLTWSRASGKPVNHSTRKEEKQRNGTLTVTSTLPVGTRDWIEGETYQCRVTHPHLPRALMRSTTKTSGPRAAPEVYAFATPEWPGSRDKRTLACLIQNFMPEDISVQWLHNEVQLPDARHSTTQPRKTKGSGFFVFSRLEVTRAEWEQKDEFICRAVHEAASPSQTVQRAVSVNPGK

In general, IC50 refers to the concentration that inhibits the measured activity by half. In the case of “GGCGGCAGCTTTATCCGTACCTCCCAGTGGGCTGCTCC [DNA clone SEQ 149 with 3' idT]”, in data set [1] (setting [7]), the half-inhibitory concentration (IC50) is greater than 250 nM.
The Kd is the concentration at which binding is half-saturated. Take AGCCUGGGGACCCAUGGGGGGCU [ARC1666]: the Kd in data set [2] (mAmGmCmCmUdGmGdG-s-dGmAmCmCmCmAmU-s-dI-s-mGdI-s-dGdI-s-dGmCmU-3T [2'-OMe 1-5,7,10-15,17,22,23, dI16,dI18,dI20 (inosine, parent base G), phosphorothioate 8/9,15/16,16/17,18/19,20/21 (N linkage letters left out), 3' inverted dT24], dPBS Ca/Mg + BSA, RT, 0.06 nM in Table 23) came out at 0.035 nM. Moreover, the IC50 in data set [1] (mAmGmCmCmUdGmGdG-s-dGmAmCmCmCmAmU-s-dI-s-mGdI-s-dGdI-s-dGmCmU-3T [2'-OMe 1-5,7,10-15,17,22,23, dI16,dI18,dI20 (inosine, parent base G), phosphorothioate 8/9,15/16,16/17,18/19,20/21 (N linkage letters left out), 3' inverted dT24], ELISA, monkey IgE:FceR1a-Fc, human IC50 5 nM in same assay) is 8 nM.
With “GGGAAAAGCGAAUCAUACACAAGACGUCGCCAGAUUGAGUGUCGUGGUUCGGGUUGAGGCGGAAGCUCCGCCAGAGACCAACCGAGAA [rRfY clone SEQ 11]”, the IC50 in data set [3] (ELISA FceR1-Fc, FACS 14 nM (Table 25)) is 2.6 nM. The dissociation constant (Kd) in data set [4] was 0.144 nM.
“GGGAAAAGCGAAUCAUACACAAGACGUCGCCAGAUUGAGUGUCGUGGUU [rRfY minimer SEQ 90]”: the Kd in data set [2] (2'-F C and U, KD2 28.2 nM, 1xSHMCK + 0.1 mg/mL tRNA) is 0.33 nM. The IC50 in data set [5] was greater than 1000 nM.
For the sequence “GGAGAUCCGAGGGUGGGCAAUAGGCUCACAAGGGUUU [rRfY minimer SEQ 93]”, the Kd in data set [2] (2'-F C and U, KD2 17.1 nM, 1xSHMCK + tRNA) is 0.65 nM. Moreover, the half-maximal inhibitory concentration (IC50) in data set [5] was greater than 1000 nM; in data set [3] (FACS, 15 nM IgE), 12.5 nM.
The sequence “GGGGCTACTTTATCCGTCCCTCCTAGTGGGTAGCCCC [ARC475 with 3' idT]” displayed an IC50 in data set [1] (setting [7]) greater than 250 nM.
As to AGCCUGGGGACCCAUGGGGGGCU [ARC445], the Kd in data set [2] (dRmY: 2'-deoxy A,G, 2'-OMe C,U, dPBS Ca/Mg + 0.1 mg/mL BSA, RT, 22 nM in PBS with tRNA + ssDNA (Table 10)) worked out at 3 nM. The sequence also returned an IC50 in data set [1] (dRmY: 2'-deoxy A,G, 2'-OMe C,U, ELISA, monkey IgE:FceR1a-Fc, human IC50 63 nM in same assay) of 161 nM.
AGCCUGGGGACCCAUGGGGGGCU [ARC1251]: the Kd in data set [6] came out at 7 nM.
